The term IC50 denotes the point on the concentration scale where inhibition reaches its midpoint.

The results in this text go back to patent US20060233798A1.

Test [1] addresses HIV-1JR-FL envelope glycoproteins gp120/gp41 on HeLa-EnvJR-FL+ cells (HIV-1 JR-FL). As to the kind of experiment: cell-based or functional assay.
In test [2] the target is CCR5 chemokine receptor on the cell surface (UniProt P51681).
The target is the same in test [3]. As to the kind of experiment: flow cytometry on L1.2-CCR5+ cells, PE anti-mouse IgG. (In general: In flow cytometry, cells or beads pass a laser one at a time.)
Test [4] shares this target. Description: flow cytometry on mitogen-stimulated PBMC.
Test [5] has the same target. As to the kind of experiment: cell-based or functional assay.

Chain of UniProt P51681 (P51681 whole entry): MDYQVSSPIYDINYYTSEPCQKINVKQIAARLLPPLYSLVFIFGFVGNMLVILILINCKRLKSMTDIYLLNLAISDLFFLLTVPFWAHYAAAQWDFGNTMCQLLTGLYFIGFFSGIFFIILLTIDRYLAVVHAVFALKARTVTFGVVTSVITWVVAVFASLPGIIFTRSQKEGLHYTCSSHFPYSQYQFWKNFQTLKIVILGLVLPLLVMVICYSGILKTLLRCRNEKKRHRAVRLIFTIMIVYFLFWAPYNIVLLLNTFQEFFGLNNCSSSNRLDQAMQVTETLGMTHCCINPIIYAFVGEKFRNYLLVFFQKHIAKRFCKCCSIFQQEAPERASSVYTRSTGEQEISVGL

For “CD4-IgG2 (from UniProt P01730 26-204; P01730 26-203) (Fc fusion)”, the K (equal to the IC50) of the median effect fit, inhibition of env-mediated membrane fusion (RET assay, HeLa-EnvJR-FL+ and PM1 cells) in test [1] came out at 0.31 µg/mL.

In turn, T-20 peptide registered a K (equal to the IC50) of the median effect fit, inhibition of env-mediated membrane fusion (RET assay, HeLa-EnvJR-FL+ and PM1 cells) in test [1] of 0.017 µg/mL.

anti-CCR5 mAb 2D7 (antibody) gave an IC50 in test [2] of 1.38 µg/mL. For the same substance, the % of L1.2-CCR5+ cells stained in test [3] is > 90%. Moreover, the % of PBMC stained in test [4] is > 20%. In addition, in test [5], the IC50, inhibition of JR-FL entry (luciferase reporter virus, U87MG-CD4+CCR5+ cells) worked out at 0.026 µg/mL; the IC50, inhibition of cell-cell fusion (RET assay, PM1 and HeLa-EnvJR-FL+ cells) turned out to be 1.6 µg/mL; the K (equal to the IC50) of the median effect fit, inhibition of cell-cell fusion (RET assay) amounted to 0.36 µg/mL.

For the substance anti-CCR5 monoclonal antibody PA14, the concentration for half-maximal inhibition (IC50) in test [2] was 1.58 µg/mL. Also, the % of L1.2-CCR5+ cells stained in test [3] is > 90%. In addition, in test [4], the % of PBMC stained is > 20% and the fold difference of m.f.i. against PA9 is 7 fold. For the same substance, in test [5], the % inhibition of entry attained is > 90%; the % inhibition of fusion attained was > 90%; the IC50, inhibition of JR-FL entry (luciferase reporter virus, U87MG-CD4+CCR5+ cells) was found to be 0.024 µg/mL; the IC50, inhibition of cell-cell fusion (RET assay, PM1 and HeLa-EnvJR-FL+ cells) worked out at 1.7 µg/mL. Also, in test [5], the IC50 for calcium influx inhibition (RANTES-induced, L1.2-CCR5+ cells) was determined as 50 µg/mL and the IC50 for calcium influx inhibition, ratio to the IC50 for 2D7 came out at 8 fold.
